Common to all, as to assay: SPR
In experiment [1] the target is His-FGF2, LMW FGF2 (residues 135-288, C211S/C229S), P09038. The settings on record: chain shown with the change; concentration series 0.031, 0.063, 0.13, 0.25, 0.50, 1.0, 2.0, 4.0, 8.0, 16 µM.
The target of experiment [2] is T1, His-FGF2 Mut (C211S/C229S/R262A/T263A/K271A), P09038.
T1 chain: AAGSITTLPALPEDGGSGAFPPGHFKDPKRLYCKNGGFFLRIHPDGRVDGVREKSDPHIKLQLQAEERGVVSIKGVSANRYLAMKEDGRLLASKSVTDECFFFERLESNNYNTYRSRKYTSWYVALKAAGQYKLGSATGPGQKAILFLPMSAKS
To be noted: chain shown with the change; concentration series 0.25, 0.50, 1.0, 2.0, 4.0, 8.0, 16, 32, 64 µM.

Experiment [3] concerns the target T2, His-API5 (apoptosis inhibitor 5, residues 1-504, isoform 2), wild type.
T2 chain: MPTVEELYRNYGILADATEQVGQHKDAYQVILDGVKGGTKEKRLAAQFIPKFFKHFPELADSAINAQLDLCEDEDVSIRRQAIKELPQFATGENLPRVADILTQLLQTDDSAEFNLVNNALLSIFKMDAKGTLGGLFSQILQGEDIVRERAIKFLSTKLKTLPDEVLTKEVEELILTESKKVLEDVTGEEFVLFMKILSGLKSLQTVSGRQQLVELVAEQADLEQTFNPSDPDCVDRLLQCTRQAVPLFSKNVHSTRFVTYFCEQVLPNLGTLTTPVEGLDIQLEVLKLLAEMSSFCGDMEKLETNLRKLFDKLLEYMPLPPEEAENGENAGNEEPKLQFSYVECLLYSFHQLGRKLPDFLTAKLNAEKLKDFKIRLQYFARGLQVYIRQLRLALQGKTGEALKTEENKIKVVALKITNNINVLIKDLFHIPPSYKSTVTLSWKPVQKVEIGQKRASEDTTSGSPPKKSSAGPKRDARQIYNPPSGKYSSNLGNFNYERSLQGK
To be noted: chain shown with the change; concentration series 0.13, 0.25, 0.50, 1.0, 2.0, 4.0, 8.0, 16 µM.

B1: His-API5 (apoptosis inhibitor 5, residues 1-504, isoform 2), wild type E184A; D185A; E190A (protein)
chain: MPTVEELYRNYGILADATEQVGQHKDAYQVILDGVKGGTKEKRLAAQFIPKFFKHFPELADSAINAQLDLCEDEDVSIRRQAIKELPQFATGENLPRVADILTQLLQTDDSAEFNLVNNALLSIFKMDAKGTLGGLFSQILQGEDIVRERAIKFLSTKLKTLPDEVLTKEVEELILTESKKVLAAVTGEAFVLFMKILSGLKSLQTVSGRQQLVELVAEQADLEQTFNPSDPDCVDRLLQCTRQAVPLFSKNVHSTRFVTYFCEQVLPNLGTLTTPVEGLDIQLEVLKLLAEMSSFCGDMEKLETNLRKLFDKLLEYMPLPPEEAENGENAGNEEPKLQFSYVECLLYSFHQLGRKLPDFLTAKLNAEKLKDFKIRLQYFARGLQVYIRQLRLALQGKTGEALKTEENKIKVVALKITNNINVLIKDLFHIPPSYKSTVTLSWKPVQKVEIGQKRASEDTTSGSPPKKSSAGPKRDARQIYNPPSGKYSSNLGNFNYERSLQGK
B1 displayed a koff in experiment [1] of 0.0094 s⁻¹.

B2: m1; m2 API5: E184A; D185A; E190A; FGF2: R262A; T263A; K271A (protein)
chain: MPTVEELYRNYGILADATEQVGQHKDAYQVILDGVKGGTKEKRLAAQFIPKFFKHFPELADSAINAQLDLCEDEDVSIRRQAIKELPQFATGENLPRVADILTQLLQTDDSAEFNLVNNALLSIFKMDAKGTLGGLFSQILQGEDIVRERAIKFLSTKLKTLPDEVLTKEVEELILTESKKVLAAVTGEAFVLFMKILSGLKSLQTVSGRQQLVELVAEQADLEQTFNPSDPDCVDRLLQCTRQAVPLFSKNVHSTRFVTYFCEQVLPNLGTLTTPVEGLDIQLEVLKLLAEMSSFCGDMEKLETNLRKLFDKLLEYMPLPPEEAENGENAGNEEPKLQFSYVECLLYSFHQLGRKLPDFLTAKLNAEKLKDFKIRLQYFARGLQVYIRQLRLALQGKTGEALKTEENKIKVVALKITNNINVLIKDLFHIPPSYKSTVTLSWKPVQKVEIGQKRASEDTTSGSPPKKSSAGPKRDARQIYNPPSGKYSSNLGNFNYERSLQGK
For the molecule B2, in experiment [2], the koff came to 0.00328 s⁻¹ and the other: t1/2 (half-life of complex) turned out to be 3.52 min.

B3: His-FGF2, LMW FGF2 (residues 135-288, C211S/C229S), P09038 R262A; T263A; K271A (protein)
chain: AAGSITTLPALPEDGGSGAFPPGHFKDPKRLYCKNGGFFLRIHPDGRVDGVREKSDPHIKLQLQAEERGVVSIKGVSANRYLAMKEDGRLLASKSVTDECFFFERLESNNYNTYRSRKYTSWYVALKAAGQYKLGSATGPGQKAILFLPMSAKS
On to B3, for which the koff in experiment [3] came out at 0.00251 s⁻¹.

Source of the values: publication PMC7293033.
